We go through 167 variants from the RNAGym collection of RNA variant scans (doi:10.7554/elife.90254).

To fix the notation:
B1: LINE1-mini (parent)
chain: GGCAGAGCUCAACACAGCGUGGCAAAGUGGCUGUGGCUAGACUGCC

The data set covers variants of B1. In words: self-cleavage, relative activity (ratio to wild type); higher = more cleavage; in vitro, sequencing; the parent is a self-cleaving ribozyme.
Take A6G A26U: the self-cleavage came out at 0.1. To A6G A26C belongs 0.14. As to A6G A26G, the self-cleavage is 0.1.

In the case of A6U A25U, the self-cleavage is 0.72. A6U A25C: the self-cleavage came to 0.65. The same measure for A6U A25G: 0.47; for A6C U20G: 0.35. As for A6C U20C, the self-cleavage worked out at 0.33. To A6C U20A belongs 0.52.

Consider A6C A24G, for which the self-cleavage was 0.49. Regarding A6C A24U, the self-cleavage amounted to 1.07. For the variant A6C A24C, the self-cleavage was found to be 0.41. Regarding A6C U32A, the self-cleavage came to 0.03. In the case of A6C U32G, the self-cleavage worked out at 0.05. Consider A6C U32C, for which the self-cleavage amounted to 0.05. As to A6G C46G, the self-cleavage worked out at 0.08. The same measure for A6G C46A: 0.13; for A6G C46U: 0.09; for A6C G27U: 0.56. For the variant A6C G27A, the self-cleavage was 0.5. In the case of A6C G27C, the self-cleavage turned out to be 0.57. The same measure for A6C C15G: 0.04. For the variant A6C C15A, the self-cleavage came to 0.1.

On to A6C C15U, for which the self-cleavage came out at 0.66. To A6G C18U belongs 0.08; to A6G C18G, 0.11; to A6G C18A, 0.11. In the case of A6G U34A, the self-cleavage was 0.04. Take A6G U34G: the self-cleavage is 0.04. A6G U34C: the self-cleavage turned out to be 0.09.

As to A6G A25U, the self-cleavage amounted to 0.1. For the variant A6G A25G, the self-cleavage came out at 0.07.

Turning to A6G A25C, the self-cleavage is 0.1. For A6G U20G, the self-cleavage was found to be 0.13. For A6G U20A, the self-cleavage was found to be 0.04. The same measure for A6G U20C: 0.1; for G5U U34A: 0.04; for G5U U34G: 0.04.

G5U U34C: the self-cleavage worked out at 0.07. On to A6G C37A, for which the self-cleavage amounted to 0.05.

On to A6G C37U, for which the self-cleavage came out at 0.03.

For the variant A6G C37G, the self-cleavage stood at 0.07. In the case of G5U G30A, the self-cleavage was determined as 0.18. Take G5U G30U: the self-cleavage came to 0.26.

With G5U G30C, the self-cleavage is 0.05.

As to G5U G29A, the self-cleavage is 0.15. The same measure for G5U G29U: 0.12; for G5U G29C: 0.04. On to A6G C15G, for which the self-cleavage turned out to be 0.02. To A6G C15A belongs 0.05. The same measure for A6G C15U: 0.17. In the case of A6U C15U, the self-cleavage was 0.92. To A6U C15G belongs 0.07; to A6U C15A, 0.16. To A6G G30U belongs 0.13; to A6G G30A, 0.19. Turning to A6G G30C, the self-cleavage was 0.13. In the case of A6C C10G, the self-cleavage is 0.05. The same measure for A6C C10A: 0.11; for A6C C10U: 0.15. To G5U U32C belongs 0.07; to G5U U32A, 0.07; to G5U U32G, 0.09. Turning to G5U U28C, the self-cleavage was found to be 0.09. Turning to G5U U28A, the self-cleavage turned out to be 0.06. In the case of G5U U28G, the self-cleavage is 0.09. To A6G C10A belongs 0.03; to A6G C10G, 0.02. To A6G C10U belongs 0.04; to A6G U9A, 0.12; to A6G U9C, 0.02. Turning to A6G U9G, the self-cleavage worked out at 0.17. To A6U A11U belongs 0.09. To A6U A11C belongs 0.06; to A6U A11G, 0.04. To A6G A24G belongs 0.12; to A6G A24U, 0.19. For the variant A6G A24C, the self-cleavage was determined as 0.13. Regarding G5U G44A, the self-cleavage worked out at 0.08. On to G5U G44U, for which the self-cleavage stood at 0.06. The same measure for G5U G44C: 0.06.

As to G5U U9C, the self-cleavage came to 0.05. The same measure for G5U U9G: 0.11; for G5U U9A: 0.36; for A6C C37U: 0.12. The same measure for A6C C37G: 0.03. Regarding A6C C37A, the self-cleavage amounted to 0.34. A6G G19A: the self-cleavage was determined as 0.09.

A6G G19C: the self-cleavage came out at 0.05. The same measure for A6G G19U: 0.15; for A6C G33C: 0.07; for A6C G33A: 0.06.

On to A6C G33U, for which the self-cleavage was determined as 0.09.

For the variant A6C G29A, the self-cleavage is 0.7. To A6C G29C belongs 0.36; to A6C G29U, 0.61.

On to A6G G7U, for which the self-cleavage is 0.05. To A6G G7A belongs 0.11; to A6G G7C, 0.14; to A6C G17C, 1.47. The same measure for A6C G17U: 0.11. As for A6C G17A, the self-cleavage turned out to be 0.17.

On to A6C C13G, for which the self-cleavage turned out to be 0.15. The same measure for A6C C13A: 0.12. The same measure for A6C C13U: 0.14; for A6G C23U: 0.1. To A6G C23A belongs 0.11; to A6G C23G, 0.1.

For the variant A6C A25C, the self-cleavage was 0.5. Turning to A6C A25U, the self-cleavage is 0.52. A6C A25G: the self-cleavage worked out at 0.18. On to A6U A16C, for which the self-cleavage was 0.09. As to A6U A16U, the self-cleavage turned out to be 0.11.

For A6U A16G, the self-cleavage was found to be 0.14. The same measure for A6C G30A: 1.01.

With A6C G30U, the self-cleavage was 0.9. The same measure for A6C G30C: 0.2; for A6C G40A: 0.11. The same measure for A6C G40C: 0.1; for A6C G40U: 0.15; for G5U G21U: 0.1.

For G5U G21C, the self-cleavage stood at 0.09. The same measure for A6U A14C: 0.11. The same measure for A6U A14U: 0.27. For A6U A14G, the self-cleavage amounted to 0.1.

For the variant A6C, the self-cleavage amounted to 0.71. The same measure for A6G: 0.12; for A6U: 0.7. To A6G C13A belongs 0.19; to A6G C13G, 0.13.

Regarding A6G C13U, the self-cleavage is 0.15. Take A6G G40U: the self-cleavage was found to be 0.1. With A6G G40C, the self-cleavage worked out at 0.05.

A6G G40A: the self-cleavage was 0.1.

With A6C C23G, the self-cleavage was determined as 0.43. With A6C C23A, the self-cleavage was 0.5.

Consider A6C C23U, for which the self-cleavage amounted to 0.62. To G5U U20C belongs 0.05; to G5U U20G, 0.06; to G5U U20A, 0.06. The same measure for A6U C10U: 0.12; for A6U C10A: 0.07; for A6U C10G: 0.06. Regarding A6C G22C, the self-cleavage was 0.65.

For A6C G22U, the self-cleavage was 0.57.

Turning to A6C G22A, the self-cleavage worked out at 0.66. The same measure for A6G C45G: 0.18. For A6G C45U, the self-cleavage stood at 0.11. To A6G C45A belongs 0.15; to A6G G21U, 0.13; to A6G G21A, 0.23.

For A6G G21C, the self-cleavage came out at 0.13. The same measure for G5U G22C: 0.06; for G5U G22A: 0.16; for G5U G22U: 0.18. For the variant G5U G27C, the self-cleavage was 0.05.

Regarding G5U G27A, the self-cleavage came out at 0.06. As to G5U G27U, the self-cleavage came out at 0.11. With G5U G33U, the self-cleavage amounted to 0.05. To G5U G33C belongs 0.06; to G5U G33A, 0.04; to A6U A26C, 0.56. The same measure for A6U A26U: 0.85; for A6U A26G: 0.31; for A6U C8U: 0.29. To A6U C8A belongs 0.27; to A6U C8G, 0.15.
